# Measured values from patent publication US7657380.
# Molecular target: T1, EGFR extracellular domain (R&D Systems) (UniProt P00533 25-645, limits assumed)
# Experiment: SPR, full length antibody over EGFR chip
row,Binder,binding result
1,"C225 L4/H8 full length antibody (antibody, IgG1, V domains shown) VH: QVQLVESGGGLVQPGRSLRLSCAVSGFSLTNYGVHWVRQAPGKGLEWVSVIWSGGNTDYNTSVKGRFTISKDNSKSTVYLQMNSLRAEDTAVYYCARALTYYDYEFAYWGQGTLVTVSS VL: DILLTQSPAFLSVTPGEKVTITCRASQSIGTNIHWYQQKPDQSPKLLIKYASESISGIPSRFSGSGSGTDFTLTINSLEAEDAATYYCQQNNNWPTTFGAGTKLEIK",binds
2,"C225 L3/H6 full length antibody (antibody, IgG1, V domains shown) VH: QVQLQQSGPGLVKPSQTLSLTCTVSGFSLTNYGVHWVRQAPGKGLEWVGVIWSGGNTDYNTSVKGRFTISKDNSKSQVYLQMNSLRAEDTAVYYCARALTYYDYEFAYWGQGTLVTVSS VL: DILLTQSPSSLSASVGDRVTITCRASQSIGTNIHWYQQKPDQSPKLLIKYASESISGIPSRFSGSGSGTDFTLTISSLQAEDVAVYYCQQNNNWPTTFGAGTKLEIK",binds
3,"C225 L4/H5 full length antibody (antibody, IgG1, V domains shown) VH: QVQLQQSGPGLVKPSQTLSLTCTVSGFSLTNYGVHWVRQAPGKGLEWLGVIWSGGNTDYNTPLTSRLTINKDNSKSQVVLQMNSLRAEDTAVYYCARALTYYDYEFAYWGQGTLVTVSS VL: DILLTQSPAFLSVTPGEKVTITCRASQSIGTNIHWYQQKPDQSPKLLIKYASESISGIPSRFSGSGSGTDFTLTINSLEAEDAATYYCQQNNNWPTTFGAGTKLEIK",binds
4,"C225 L3/H5 full length antibody (antibody, IgG1, V domains shown) VH: QVQLQQSGPGLVKPSQTLSLTCTVSGFSLTNYGVHWVRQAPGKGLEWLGVIWSGGNTDYNTPLTSRLTINKDNSKSQVVLQMNSLRAEDTAVYYCARALTYYDYEFAYWGQGTLVTVSS VL: DILLTQSPSSLSASVGDRVTITCRASQSIGTNIHWYQQKPDQSPKLLIKYASESISGIPSRFSGSGSGTDFTLTISSLQAEDVAVYYCQQNNNWPTTFGAGTKLEIK",binds

# The next lines start with the values.
row,binding result,Binder
1,binds,"C225 L3/H8 full length antibody (antibody, IgG1, V domains shown) VH: QVQLVESGGGLVQPGRSLRLSCAVSGFSLTNYGVHWVRQAPGKGLEWVSVIWSGGNTDYNTSVKGRFTISKDNSKSTVYLQMNSLRAEDTAVYYCARALTYYDYEFAYWGQGTLVTVSS VL: DILLTQSPSSLSASVGDRVTITCRASQSIGTNIHWYQQKPDQSPKLLIKYASESISGIPSRFSGSGSGTDFTLTISSLQAEDVAVYYCQQNNNWPTTFGAGTKLEIK"
2,binds,"C225 L4/H4 full length antibody (antibody, IgG1, V domains shown) VH: QVQLQQSGPGLVKPSQTLSLTCTVSGFSLTNYGVHWVRQAPGKGLEWLGVIWSGGNTDYNTSLKSRLTISKDNSKSQVVLTMTNMDPVDTATYYCARALTYYDYEFAYWGQGTLVTVSS VL: DILLTQSPAFLSVTPGEKVTITCRASQSIGTNIHWYQQKPDQSPKLLIKYASESISGIPSRFSGSGSGTDFTLTINSLEAEDAATYYCQQNNNWPTTFGAGTKLEIK"
3,binds,"C225 L4/H7 full length antibody (antibody, IgG1, V domains shown) VH: QVQLQQSGPGLVKPSQTLSLTCTVSGFSLTNYGVHWVRQPPGKGLEWIGVIWSGGNTDYNTSLKSRVTISKDNSKSQVSLKLSSVTAADTAVYYCARALTYYDYEFAYWGQGTLVTVSS VL: DILLTQSPAFLSVTPGEKVTITCRASQSIGTNIHWYQQKPDQSPKLLIKYASESISGIPSRFSGSGSGTDFTLTINSLEAEDAATYYCQQNNNWPTTFGAGTKLEIK"
4,binds,"C225 L4/H6 full length antibody (antibody, IgG1, V domains shown) VH: QVQLQQSGPGLVKPSQTLSLTCTVSGFSLTNYGVHWVRQAPGKGLEWVGVIWSGGNTDYNTSVKGRFTISKDNSKSQVYLQMNSLRAEDTAVYYCARALTYYDYEFAYWGQGTLVTVSS VL: DILLTQSPAFLSVTPGEKVTITCRASQSIGTNIHWYQQKPDQSPKLLIKYASESISGIPSRFSGSGSGTDFTLTINSLEAEDAATYYCQQNNNWPTTFGAGTKLEIK"
5,binds,"C225 L3/H7 full length antibody (antibody, IgG1, V domains shown) VH: QVQLQQSGPGLVKPSQTLSLTCTVSGFSLTNYGVHWVRQPPGKGLEWIGVIWSGGNTDYNTSLKSRVTISKDNSKSQVSLKLSSVTAADTAVYYCARALTYYDYEFAYWGQGTLVTVSS VL: DILLTQSPSSLSASVGDRVTITCRASQSIGTNIHWYQQKPDQSPKLLIKYASESISGIPSRFSGSGSGTDFTLTISSLQAEDVAVYYCQQNNNWPTTFGAGTKLEIK"

# Molecular target: T1, EGFR extracellular domain (R&D Systems)
# Experiment: SPR, Fab over EGFR ECD on CM5 chip
Binder,Kd,koff,kon
"C225 L2/H3 Fab (Fab, V domains shown) VH: QVQLQQSGPGLVKPSQTLSLTCTVSGFSLTNYGVHWVRQAPGKGLEWLGVIWSGGNTDYNTSLKSRLTISKDNSKSQVVLQMNSLRAEDTAVYYCARALTYYDYEFAYWGQGTLVTVSS VL: DILLTQSPATLSLSPGERVTLSCRASQSIGTNIHWYQQKPDQSPKLLIKYASESISGIPSRFSGSGSGTDFTLTISSLQPEDFADYYCQQNNNWPTTFGAGTKLEIK",192 nM,0.00535 s⁻¹,27900 M⁻¹ s⁻¹
"C225 L2/H4 Fab (Fab, V domains shown) VH: QVQLQQSGPGLVKPSQTLSLTCTVSGFSLTNYGVHWVRQAPGKGLEWLGVIWSGGNTDYNTSLKSRLTISKDNSKSQVVLTMTNMDPVDTATYYCARALTYYDYEFAYWGQGTLVTVSS VL: DILLTQSPATLSLSPGERVTLSCRASQSIGTNIHWYQQKPDQSPKLLIKYASESISGIPSRFSGSGSGTDFTLTISSLQPEDFADYYCQQNNNWPTTFGAGTKLEIK",264 nM,0.00473 s⁻¹,17900 M⁻¹ s⁻¹

# Molecular target: T1, EGFR extracellular domain (R&D Systems)
# Experiment: SPR, Fab over EGFR on CM5 chip
Binder,Kd,koff,kon
"ICR62 WT Fab (Fab, V domains shown) VH: QVNLLQSGAALVKPGASVKLSCKGSGFTFTDYKIHWVKQSHGKSLEWIGYFNPNSGYSTYNEKFKSKATLTADKSTDTAYMELTSLTSEDSATYYCTRLSPGGYYVMDAWGQGASVTVSS VL: DIQMTQSPSFLSASVGDRVTINCKASQNINNYLNWYQQKLGEAPKRLIYNTNNLQTGIPSRFSGSGSGTDYTLTISSLQPEDFATYFCLQHNSFPTFGAGTKLELK",0.257 nM,2.53e-05 s⁻¹,98600 M⁻¹ s⁻¹
"ICR62 L2/H9 Fab (Fab, V domains shown) VH: QVQLQQSGPGLVKPGASVKVSCKGSGFTFTDYKIHWVRQAPGKSLEWMGYFNPNSGYSTYNEKFQGRVTITADKSTDTAYMELSSLRSEDTAVYYCTRLSPGGYYVMDAWGQGTLVTVSS VL: DIQMTQSPSSLSASVGDRVTITCRASQNINNYLNWYQQKPGKAPKRLIYNTNNLQTGIPSRFSGSGSGTDYTLTISSLQPEDFATYFCLQHNSFPTFGAGTKLEIK",0.45 nM,0.000106 s⁻¹,235000 M⁻¹ s⁻¹
